In PMC12794319 (Biochemical Journal, 2025):

Legend:
[1] = target: T1, human wildtype TMPRSS2 ectodomain (activated, two-chain) (human, UniProt O15393-1 107-255; O15393-1 256-492); assay: enzyme inhibition kinetics (tight-binding inhibition, fit to the Morrison equation); 50 pM human or hamster TMPRSS2 incubated with a 2/3-fold serial dilution of HAI-2 (300 to 5.2 pM) for 16 hours at room temperature; rates on the fluorogenic substrate Boc-Gln-Ala-Arg-AMC; equilibrium inhibitory constant; triplicate; conditions: both partners purified
T1 construct: TMPRSS2, human, UniProt O15393-1; held to the SP domain by a disulfide bond after cleavage; Expressed as one chain 107-492 with an Ig kappa leader; also called Human TMPRSS2; Hu TMPRSS2; source: FreeStyle 293 F (HEK293F), co-transfected with full-length HAI-2; purified from the supernatant (G25, Ni-NTA IMAC, size-exclusion chromatography)
T1 sequence (O15393 107-255, chain 1 of 2): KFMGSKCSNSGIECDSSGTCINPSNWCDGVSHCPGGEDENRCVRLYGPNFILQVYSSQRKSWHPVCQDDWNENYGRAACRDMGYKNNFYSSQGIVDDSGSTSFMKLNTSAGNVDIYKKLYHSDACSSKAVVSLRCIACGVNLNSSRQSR
T1 sequence (O15393 256-492, chain 2 of 2): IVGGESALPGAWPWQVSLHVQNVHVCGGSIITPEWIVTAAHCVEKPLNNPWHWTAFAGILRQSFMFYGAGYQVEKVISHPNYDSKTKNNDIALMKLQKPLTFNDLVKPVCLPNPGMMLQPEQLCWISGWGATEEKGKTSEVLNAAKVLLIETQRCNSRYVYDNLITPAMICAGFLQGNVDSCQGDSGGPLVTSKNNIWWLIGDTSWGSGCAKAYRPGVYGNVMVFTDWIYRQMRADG

[2] = target: T2, Syrian hamster wildtype TMPRSS2 ectodomain (activated, two-chain) (Syrian hamster (Mesocricetus auratus), UniProt A0A1U8C7X1 108-254; A0A1U8C7X1 255-491); assay: as above; conditions: both partners purified
T2 construct: TMPRSS2, Syrian hamster (Mesocricetus auratus), UniProt printed as 'A0A1U8C7 × 1'; N-terminal non-catalytic part of the ectodomain construct 108-491 up to the arginine of the scissile bond, R254; Expressed as one chain 108-491 with an Ig kappa leader; also called Hamster TMPRSS2; Ham TMPRSS2; source: FreeStyle 293 F (HEK293F), co-transfected with full-length HAI-2; purified from the supernatant …
T2 sequence (chain, as listed by the source, chain 1 of 2): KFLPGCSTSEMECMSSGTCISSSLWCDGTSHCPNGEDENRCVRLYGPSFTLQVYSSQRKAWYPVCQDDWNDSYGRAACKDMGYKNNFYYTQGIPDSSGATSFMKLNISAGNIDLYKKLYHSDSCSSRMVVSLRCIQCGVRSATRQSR
T2 sequence (chain, as listed by the source, chain 2 of 2): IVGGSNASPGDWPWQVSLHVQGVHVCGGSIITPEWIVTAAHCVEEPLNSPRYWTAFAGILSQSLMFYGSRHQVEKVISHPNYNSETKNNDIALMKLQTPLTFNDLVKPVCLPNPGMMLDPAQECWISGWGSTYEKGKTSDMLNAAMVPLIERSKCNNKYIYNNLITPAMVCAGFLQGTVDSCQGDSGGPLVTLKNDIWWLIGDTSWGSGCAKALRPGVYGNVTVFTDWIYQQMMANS

B1: human HAI-2 (hepatocyte growth factor activator inhibitor-2) ectodomain (domain or fragment, UniProt O43291-1 36-196, looked up)
chain: DFCLVSKVVGRCRASMPRWWYNVTDGSCQLFVYGGCDGNSNNYLTKEECLKKCATVTENATGDLATSRNAADSSVPSAPRRQDSEDHSSDMFNYEEYCTANAVTGPCRASFPRWYFDVERNSCNNFIYGGCRGNKNSYRSEEACMLRCFRQQENPPLPLGS
notes: source: FreeStyle 293 F (HEK293F), pcDNA3.1; purified (Ni-NTA IMAC, size-exclusion chromatography)
[1]
  Ki: 4.6 pM
[2]
  Ki: 0.7 pM
